Measured values from patent US20030203372A1, “Analysis method” (priority 2000, published 2003).

Target: HIF1α (hypoxia-inducible factor 1 alpha) (UniProt Q16665)
Assay: cell-based or functional assay

HIF1α activity measured in Luciferase units from the HRE-Luc reporter, 293T cells in normoxia, co-transfected with CMV-HIF and CMV-SVFL1 (CMV-HIF with HRE-Luc alone: 20953 Luciferase units) (Luciferase units): 918
Substance: EGL nine (C.elegans) homolog 3 (EGLN3), full length (from UniProt Q9H6Z9 1-239)
